Biological target: biotinylated CD3 epsilon epitope peptide
Test: SPR Biacore, method of Ref. Ex. 11

- Kd: 110 nM
B1: CE115HA000 (antibody, V domains shown)
VH: QVQLVESGGGVVQPGRSLRLSCAASGFTFSNAWMHWVRQAPGKGLEWVAQIKAKSNNYATYYAESVKGRFTISRDDSKNSLYLQMNSLKTEDTAVYYCRYVHYGAYYGVDAWGQGTTVTVSS
VL: DIVMTQSPLSLPVTPGEPASISCRSSQSLVHSNRNTYLHWYQQKPGQAPRLLIYKVSNRFSGVPDRFSGSGSGTDFTLKISRVEAEDVGVYYCGQGTQVPYTFGQGTKLEIK

Reference: patent publication US20220112296A1
